Experimental data published in paper PMC4075491, “Crystallography based structure elucidation of the complex of C-terminal fragment of Aβ polypeptide of Alzheimer’s disease with phospholipase A2” (BMC Genomics, 2014).

Biological target: T1, phospholipase A2 (PLA2) from cobra venom (cobra, UniProt P60045 8-126)
T1 construct: source: purified to homogeneity from cobra venom
Test: enzyme kinetic studies (competitive); kinetic studies; the peptide binds to PLA2 in a competitive manner; no conditions told
Details: both partners purified

T1 sequence (P60045 8-126): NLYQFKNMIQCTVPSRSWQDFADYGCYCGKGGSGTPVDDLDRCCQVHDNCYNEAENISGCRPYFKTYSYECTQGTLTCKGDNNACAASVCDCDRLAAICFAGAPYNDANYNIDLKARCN

B1: Aβ(36-42) C-terminal heptapeptide Val-Gly-Gly-Val-Val-Ile-Ala (peptide)
peptide: VGGVVIA
notes: C-terminal heptapeptide of the Aβ polypeptide of Alzheimer's disease, residues 36-42; numbers count on: the Aβ peptide; also called VGGVVIA; Aβ_(36-42) peptide
- Ki: 520 nM
